Drawing on the Human Domainome abundance scans (Beltran et al. 2025), this text covers abundance fitness for 46 substances.

± gives the uncertainty stated by the source.

The data set is described as follows: abundance fitness (aPCA) (normalised: wild type 0, dead -1); higher = more abundant; growth selection in yeast, the domain comes from the species named. The settings on record: Homo sapiens.
Consider “Lipoamide acyltransferase component of branched-chain alpha-keto acid dehydrogenase complex, mitochondrial L188K, P11182”, for which the abundance fitness is -0.578 ± 0.052.

For “Lipoamide acyltransferase component of branched-chain alpha-keto acid dehydrogenase complex, mitochondrial L188M, P11182”, the abundance fitness was -0.248 ± 0.054.

Consider “Lipoamide acyltransferase component of branched-chain alpha-keto acid dehydrogenase complex, mitochondrial L188N, P11182”, for which the abundance fitness is -0.567 ± 0.095.

Consider “Lipoamide acyltransferase component of branched-chain alpha-keto acid dehydrogenase complex, mitochondrial L188P, P11182”, for which the abundance fitness is -0.412 ± 0.047. Take “Lipoamide acyltransferase component of branched-chain alpha-keto acid dehydrogenase complex, mitochondrial L188R, P11182”: the abundance fitness is -0.647 ± 0.04. For the substance “Lipoamide acyltransferase component of branched-chain alpha-keto acid dehydrogenase complex, mitochondrial L188S, P11182”, the abundance fitness is -0.656 ± 0.059. On to “Lipoamide acyltransferase component of branched-chain alpha-keto acid dehydrogenase complex, mitochondrial L188T, P11182”, for which the abundance fitness is -0.519 ± 0.07.

Take “Lipoamide acyltransferase component of branched-chain alpha-keto acid dehydrogenase complex, mitochondrial L188W, P11182”: the abundance fitness is -0.513 ± 0.048. As for “Lipoamide acyltransferase component of branched-chain alpha-keto acid dehydrogenase complex, mitochondrial L201A, P11182”, the abundance fitness was -0.315 ± 0.041. On to “Lipoamide acyltransferase component of branched-chain alpha-keto acid dehydrogenase complex, mitochondrial L201C, P11182”, for which the abundance fitness is -0.243 ± 0.064. For “Lipoamide acyltransferase component of branched-chain alpha-keto acid dehydrogenase complex, mitochondrial L201D, P11182”, the abundance fitness is -0.374 ± 0.14.

“Lipoamide acyltransferase component of branched-chain alpha-keto acid dehydrogenase complex, mitochondrial L201E, P11182”: the abundance fitness was -0.038 ± 0.042.

Regarding “Lipoamide acyltransferase component of branched-chain alpha-keto acid dehydrogenase complex, mitochondrial L201F, P11182”, the abundance fitness is -0.319 ± 0.09. In the case of “Lipoamide acyltransferase component of branched-chain alpha-keto acid dehydrogenase complex, mitochondrial L201G, P11182”, the abundance fitness is -0.275 ± 0.034. Consider “Lipoamide acyltransferase component of branched-chain alpha-keto acid dehydrogenase complex, mitochondrial L201H, P11182”, for which the abundance fitness is -0.32 ± 0.07.

In the case of “Lipoamide acyltransferase component of branched-chain alpha-keto acid dehydrogenase complex, mitochondrial L201K, P11182”, the abundance fitness was -0.256 ± 0.056. With “Lipoamide acyltransferase component of branched-chain alpha-keto acid dehydrogenase complex, mitochondrial L201M, P11182”, the abundance fitness was -0.141 ± 0.069. For “Lipoamide acyltransferase component of branched-chain alpha-keto acid dehydrogenase complex, mitochondrial L201N, P11182”, the abundance fitness was -0.119 ± 0.093.

Consider “Lipoamide acyltransferase component of branched-chain alpha-keto acid dehydrogenase complex, mitochondrial L201P, P11182”, for which the abundance fitness was -0.602 ± 0.062. Turning to “Lipoamide acyltransferase component of branched-chain alpha-keto acid dehydrogenase complex, mitochondrial L201Q, P11182”, the abundance fitness was -0.11 ± 0.049.

For “Lipoamide acyltransferase component of branched-chain alpha-keto acid dehydrogenase complex, mitochondrial L201R, P11182”, the abundance fitness is -0.209 ± 0.034. Consider “Lipoamide acyltransferase component of branched-chain alpha-keto acid dehydrogenase complex, mitochondrial L201S, P11182”, for which the abundance fitness is -0.171 ± 0.061. The value for “Lipoamide acyltransferase component of branched-chain alpha-keto acid dehydrogenase complex, mitochondrial L201T, P11182” was 0.035 ± 0.054; that for “Lipoamide acyltransferase component of branched-chain alpha-keto acid dehydrogenase complex, mitochondrial L201V, P11182” was -0.096 ± 0.037. As to “Lipoamide acyltransferase component of branched-chain alpha-keto acid dehydrogenase complex, mitochondrial L201W, P11182”, the abundance fitness is -0.683 ± 0.052. In the case of “Lipoamide acyltransferase component of branched-chain alpha-keto acid dehydrogenase complex, mitochondrial L206A, P11182”, the abundance fitness was -0.08 ± 0.036. Then “Lipoamide acyltransferase component of branched-chain alpha-keto acid dehydrogenase complex, mitochondrial L206C, P11182”, with -0.555 ± 0.34; and “Lipoamide acyltransferase component of branched-chain alpha-keto acid dehydrogenase complex, mitochondrial L206D, P11182”, with 0.01 ± 0.065. The value for “Lipoamide acyltransferase component of branched-chain alpha-keto acid dehydrogenase complex, mitochondrial L206E, P11182” was 0.007 ± 0.06; that for “Lipoamide acyltransferase component of branched-chain alpha-keto acid dehydrogenase complex, mitochondrial L206F, P11182” was -0.353 ± 0.36. For “Lipoamide acyltransferase component of branched-chain alpha-keto acid dehydrogenase complex, mitochondrial L206G, P11182”, the abundance fitness was -0.149 ± 0.033. As to “Lipoamide acyltransferase component of branched-chain alpha-keto acid dehydrogenase complex, mitochondrial L206K, P11182”, the abundance fitness was -0.113 ± 0.065.

Take “Lipoamide acyltransferase component of branched-chain alpha-keto acid dehydrogenase complex, mitochondrial L206N, P11182”: the abundance fitness is -0.052 ± 0.066. For the substance “Lipoamide acyltransferase component of branched-chain alpha-keto acid dehydrogenase complex, mitochondrial L206P, P11182”, the abundance fitness is -0.291 ± 0.063. Then “Lipoamide acyltransferase component of branched-chain alpha-keto acid dehydrogenase complex, mitochondrial L206Q, P11182”, with -0.028 ± 0.051. On to “Lipoamide acyltransferase component of branched-chain alpha-keto acid dehydrogenase complex, mitochondrial L206R, P11182”, for which the abundance fitness is -0.071 ± 0.035. Turning to “Lipoamide acyltransferase component of branched-chain alpha-keto acid dehydrogenase complex, mitochondrial L206S, P11182”, the abundance fitness was -0.072 ± 0.049. As for “Lipoamide acyltransferase component of branched-chain alpha-keto acid dehydrogenase complex, mitochondrial L206V, P11182”, the abundance fitness is -0.026 ± 0.043. In the case of “Lipoamide acyltransferase component of branched-chain alpha-keto acid dehydrogenase complex, mitochondrial L206W, P11182”, the abundance fitness is -0.135 ± 0.052. For the substance “Lipoamide acyltransferase component of branched-chain alpha-keto acid dehydrogenase complex, mitochondrial L209A, P11182”, the abundance fitness came to 0.037 ± 0.043. In the case of “Lipoamide acyltransferase component of branched-chain alpha-keto acid dehydrogenase complex, mitochondrial L209C, P11182”, the abundance fitness is -0.052 ± 0.057.

For the substance “Lipoamide acyltransferase component of branched-chain alpha-keto acid dehydrogenase complex, mitochondrial L209D, P11182”, the abundance fitness was -0.203 ± 0.045. With “Lipoamide acyltransferase component of branched-chain alpha-keto acid dehydrogenase complex, mitochondrial L209E, P11182”, the abundance fitness is -0.153 ± 0.04. Regarding “Lipoamide acyltransferase component of branched-chain alpha-keto acid dehydrogenase complex, mitochondrial L209F, P11182”, the abundance fitness is -0.211 ± 0.098. Then “Lipoamide acyltransferase component of branched-chain alpha-keto acid dehydrogenase complex, mitochondrial L209G, P11182”, with -0.081 ± 0.034; and “Lipoamide acyltransferase component of branched-chain alpha-keto acid dehydrogenase complex, mitochondrial L209I, P11182”, with 0.047 ± 0.17.
